# From patent US20130177528A1, “COMPOSITIONS AND METHODS FOR INHIBITING VIRAL INFECTION” (WESTERN UNIVERSITY OF HEALTH SCIENCES, priority 2011, published 2013)
# B1: contortrostatin (protein)
# chain: DAPANPCCDAATCKLTTGSQCADGLCCDQCKFMKEGTVCRRARGDDLDDYCNGISAGCPRNPFHA
# Assays:
# Type in all cases: cell-based, herpes simplex virus type-1
# [1] = tested on: HSV-1 (KOS) gL86; experiment: HSV-1 entry into CHO-K1 cells expressing gD receptors, virus pre-incubated with CN (Example 2); conditions: virus 30 pfu/cell pre-incubated 90 min, read after 6 hr
# Method: (§1) Viral Entry Assay. Viral entry assays were based on quantitation of β-galactosidase expressed from the viral genome in which β-galactosidase expression is inducible by HSV infection. Cells were transiently transfected in 6-well tissue culture dishes, using Lipofectamine 2000 (In vitrogen Corp) with plasmids expressing HSV-1 entry receptors (necitn-1, HVEM and 3-OST-3 expression plasmids) at 1.5 μg per well in 1 ml. At 24 hr post-transfection, cells were re-plated in 96-well tissue culture dishes (2×10^4 cells per well) at least 16 hr prior to infection. Cells were washed and exposed to serially dilute pre-incubated virus with […] or with 1×PBS at two fold dilutions for 2 hr at room temperature. In a parallel experiment the cells were also pre-incubated with NBE for 2 hr at room temperature before infection with virus. Later the cells were washed with 1×PBS and allowed 6 hr at 37° C. before solubilization in 100 μl of PBS containing 0.5% NP-40 and the -galactosidase substrate, o-nitro-phenyl-D-galactopyranoside (ONPG; ImmunoPure, PIERCE, Rockford, Ill., 3 mg/ml). The enzymatic activity was monitored at 410 nm by spectrophotometry at several time points after the addition of ONPG in order to define the interval over which the generation of the product was linear with time. Microscopy was performed using 20×objective of the microscope (Nikon). The slide book version 3.0 was used for images. All experiments were repeated a minimum of three times.
# CN blocks herpes simplex virus type-1 (HSV-1) entry into CHO-K1 cells expressing gD receptors. […] After 6 hr at 37° C., the cells were washed, permeabilized with 100 μl of PBS containing 0.5% NP-40 and incubated with ONPG substrate (3.0 mg/ml) for quantitation of β-galactosidase activity expressed from the input viral genome. The enzymatic activity was measured at an optical density of 410 nm (OD 410).
# [2] = tested on: HSV-1 strains F, G, and MP; experiment: Infection of nectin-1 CHO Igβ cells by clinical HSV-1 strains, virus pre-incubated (Example 4); conditions: MP at 25 pfu/cell pre-incubated 90 min
# Method: In this experiment different clinical strains of HSV-1 (F, G, and MP strains of HSV-1 [37] at 25 pfu/cell) were either pre-incubated with 1×PBS (control) or with CN at the concentrations indicated in FIG. 8, panel A for 90 min at room temperature. After 90 min of incubation the two pools of viruses were incubated with Nectin-1 receptor expressing CHO Igβ cells that express β-galactosidase upon viral entry as described. The viral infection blocking was measured by ONPG assay (FIG. 8, panel A). Similar experiment was conducted using Lac Z encoded HSV-2 (333 gJ-reporter virus). HSV-2 is a genital herpes virus. […] Each value shown is the mean of three or more determinations (±SD).
# [3] = tested on: HSV-1 (KOS) gL86; experiment: HSV-1 infection of HeLa cells at MOIs 5, 15 and 25 PFU/cell (Example 6); conditions: virus pre-incubated 180 min, 6 hr
# Method: HeLa cells were each grown to 100% confluency in 96-well plates. The β-galactosidase-expressing recombinant virus HSV-1 (KOS) HSV-1 gL86 […] was pre-incubated at MOIs of 5 (FIG. 10, panel A), 15 (FIG. 10, panel B) and 25 (FIG. 10, panel C) plaque-forming units per cell (PFU) with VCN (VN), CN or ADAM15 (Ad15) at the concentrations indicated or mock treated with 1 X phosphate saline buffer for 180 min at room temperature. After 6 hr, the cells were washed, permeabilized and incubated with ONPG substrate (3.0 mg/ml). The β-gal enzymatic activity was measured at an optical density of 410 nm (OD 410). Mock treated HSV-1 with PBS was used as a […] control ((+) infected with virus alone; (−) uninfected control).
# [4] = tested on: HSV-1 (KOS) gL86; experiment: HSV-1 entry into gD receptor expressing CHO-K1 cells, cells pre-incubated with CN (Example 8); conditions: for HSV-1 viral entry (β-galactosidase activity, OD 410): 25 pfu/cell, 6 h
# Method: In this experiment, Chinese hamster ovary (CHO-K1) cells expressing glycoprotein D (gD) receptors: (A) 3-OST-3, (B) herpesvirus entry mediator and (C) nectin-1 were pre-incubated with contortrostatin (CN) at indicated concentrations or mock-treated (positive control [+]) with phosphate saline buffer for 90 min at room temperature. This treatment was followed by infection with β-galactosidase-expressing recombinant virus herpes simplex virus type-1 (HSV-1; KOS) gL86 (25 pfu/cell). Uninfected cells were kept as negative control (−). After 6 h, the cells were washed, permeabilized and incubated with o-nitro-phenyl-β-o-galactopyranoside (ONPG) substrated (3.0 mg/ml) for quantitation of β-galactosidase activity expressed from the input viral genome. The enzymatic activity was measured at an optical density of 410 nm (OD 410). Error bars represent SD. a=significant difference from controls and/or treatments (P<0.05, t-test).
# as §1
# To determine the effect of CN on HSV-1 entry, we first tested the ability of HSV-1 in the presence and absence of CN to infect CHO-KI cells expressing gD receptors. HSV-1 entry into cells was determined by using β-galactosidase expressing HSV-1 reporter virus (gL86).
molecule,measurement,setting,value
B1,"HSV-1 viral entry (β-galactosidase activity, OD 410)",[1]; CHO-K1 cells expressing 3-OST-3,blocked viral entry
same,"HSV-1 viral entry (β-galactosidase activity, OD 410)",[1]; CHO-K1 cells expressing HVEM,blocked viral entry
same,"HSV-1 viral entry (β-galactosidase activity, OD 410)",[1]; CHO-K1 cells expressing nectin-1,blocked viral entry
same,HSV-1 infection blocking activity across viral strains (ONPG assay),[2],not viral-strain specific
same,"HSV-1 infection of HeLa cells, blocking and rank order (β-gal activity, OD 410)",[3],blocked by CN >VCN >ADAM15
same,"HSV-1 viral entry (β-galactosidase activity, OD 410)",[4]; CHO-K1 cells expressing 3-OST-3 pre-incubated 90 min,significantly blocked viral emry in a dose-dependent manner
same,"HSV-1 viral entry (β-galactosidase activity, OD 410)",[4]; CHO-K1 cells expressing HVEM pre-incubated 90 min,significantly blocked viral emry in a dose-dependent manner
same,"HSV-1 viral entry (β-galactosidase activity, OD 410)",[4]; CHO-K1 cells expressing nectin-1 pre-incubated 90 min,significantly blocked viral emry in a dose-dependent manner
same,concentrations at which entry blocking activity was pronounced,[4]; gD-receptor expressing CHO-K1 cells,micromolar concentrations
